Assay results published in PMC6239434, “Angiopoietin-4-dependent venous maturation and fluid drainage in the peripheral retina” (eLife, 2018).

B1: Purified recombinant human ANGPT2 (ligand, UniProt O15123 19-496, looked up)
chain: YNNFRKSMDSIGKKQYQVQHGSCSYTFLLPEMDNCRSSSSPYVSNAVQRDAPLEYDDSVQRLQVLENIMENNTQWLMKLENYIQDNMKKEMVEIQQNAVQNQTAVMIEIGTNLLNQTAEQTRKLTDVEAQVLNQTTRLELQLLEHSLSTNKLEKQILDQTSEINKLQDKNSFLEKKVLAMEDKHIIQLQSIKEEKDQLQVLVSKQNSIIEELEKKIVTATVNNSVLQKQQHDLMETVNNLLTMMSTSNSAKDPTVAKEEQISFRDCAEVFKSGHTTNGIYTLTFPNSTEEIKAYCDMEAGGGGWTIIQRREDGSVDFQRTWKEYKVGFGNPSGEYWLGNEFVSQLTNQQRYVLKIHLKDWEGNEAYSLYEHFYLSSEELNYRIHLKGLTGTAGKISSISQPGNDFSTKDGDNDKCICKCSQMLTGGWWFDACGPSNLNGMYYPQRQNTNKFNGIKWYYWKGSGYSLKATTMMIRPADF
notes: human angiopoietin-2 (ANGPT2), purified recombinant protein from R & D Systems; Runs predominantly as disulfide-linked dimers on non-reducing SDS-PAGE; also called angiopoietin-2; source: bought: R & D Systems (purified recombinant)
B2: Purified recombinant human ANGPT4 (ligand, UniProt Q9Y264 25-503, looked up)
chain: TRQEADRGCETLVVQHGHCSYTFLLPKSEPCPPGPEVSRDSNTLQRESLANPLHLGKLPTQQVKQLEQALQNNTQWLKKLERAIKTILRSKLEQVQQQMAQNQTAPMLELGTSLLNQTTAQIRKLTDMEAQLLNQTSRMDAQMPETFLSTNKLENQLLLQRQKLQQLQGQNSALEKRLQALETKQQEELASILSKKAKLLNTLSRQSAALTNIERGLRGVRHNSSLLQDQQHSLRQLLVLLRHLVQERANASAPAFIMAGEQVFQDCAEIQRSGASASGVYTIQVSNATKPRKVFCDLQSSGGRWTLIQRRENGTVNFQRNWKDYKQGFGDPAGEHWLGNEVVHQLTRRAAYSLRVELQDWEGHEAYAQYEHFHLGSENQLYRLSVVGYSGSAGRQSSLVLQNTSFSTLDSDNDHCLCKCAQVMSGGWWFDACGLSNLNGVYYHAPDNKYKMDGIRWHYFKGPSYSLRASRMMIRPLDI
notes: human angiopoietin-4 (ANGPT4), purified recombinant protein from R & D Systems; Forms dimeric and higher oligomeric/multimeric complexes on non-reducing SDS-PAGE; also called angiopoietin-4; source: bought: R & D Systems (purified recombinant)
B3: Purified recombinant mouse Angpt4 (ligand, UniProt Q9WVH6 22-509, looked up)
chain: QHRGPEAGGHRQIHQVRRGQCSYTFVVPEPDICQLAPTAAPEALGGSNSLQRDLPASRLHLTDWRAQRAQRAQRVSQLEKILENNTQWLLKLEQSIKVNLRSHLVQAQQDTIQNQTTTMLALGANLMNQTKAQTHKLTAVEAQVLNQTLHMKTQMLENSLSTNKLERQMLMQSRELQRLQGRNRALETRLQALEAQHQAQLNSLQEKREQLHSLLGHQTGTLANLKHNLHALSSNSSSLQQQQQQLTEFVQRLVRIVAQDQHPVSLKTPKPVFQDCAEIKRSGVNTSGVYTIYETNMTKPLKVFCDMETDGGGWTLIQHREDGSVNFQRTWEEYKEGFGNVAREHWLGNEAVHRLTSRTAYLLRVELHDWEGRQTSIQYENFQLGSERQRYSLSVNDSSSSAGRKNSLAPQGTKFSTKDMDNDNCMCKCAQMLSGGWWFDACGLSNLNGIYYSVHQHLHKINGIRWHYFRGPSYSLHGTRMMLRPMGA
notes: mouse angiopoietin-4 (Angpt4, previously named Ang3), purified recombinant protein from R & D Systems; also called angiopoietin-4; Ang3; source: bought: R & D Systems (purified recombinant)
B4: Purified recombinant human ANGPT1 (ligand, UniProt Q15389 16-498, looked up)
chain: HIGCSNQRRSPENSGRRYNRIQHGQCAYTFILPEHDGNCRESTTDQYNTNALQRDAPHVEPDFSSQKLQHLEHVMENYTQWLQKLENYIVENMKSEMAQIQQNAVQNHTATMLEIGTSLLSQTAEQTRKLTDVETQVLNQTSRLEIQLLENSLSTYKLEKQLLQQTNEILKIHEKNSLLEHKILEMEGKHKEELDTLKEEKENLQGLVTRQTYIIQELEKQLNRATTNNSVLQKQQLELMDTVHNLVNLCTKEGVLLKGGKREEEKPFRDCADVYQAGFNKSGIYTIYINNMPEPKKVFCNMDVNGGGWTVIQHREDGSLDFQRGWKEYKMGFGNPSGEYWLGNEFIFAITSQRQYMLRIELMDWEGNRAYSQYDRFHIGNEKQNYRLYLKGHTGTAGKQSSLILHGADFSTKDADNDNCMCKCALMLTGGWWFDACGPSNLNGMFYTAGQNHGKLNGIKWHYFKGPSYSLRSTTMMIRPLDF
notes: human angiopoietin-1 (ANGPT1), purified recombinant protein from R & D Systems; Forms various-sized oligomers/multimers on non-reducing SDS-PAGE; also called angiopoietin-1; source: bought: R & D Systems (purified recombinant)

Assays:
TIE2 (Homo sapiens) = TIE2 (Homo sapiens) (UniProt Q02763); conditions: cited from earlier work
Chain of TIE2 (Homo sapiens) (Q02763 23-748): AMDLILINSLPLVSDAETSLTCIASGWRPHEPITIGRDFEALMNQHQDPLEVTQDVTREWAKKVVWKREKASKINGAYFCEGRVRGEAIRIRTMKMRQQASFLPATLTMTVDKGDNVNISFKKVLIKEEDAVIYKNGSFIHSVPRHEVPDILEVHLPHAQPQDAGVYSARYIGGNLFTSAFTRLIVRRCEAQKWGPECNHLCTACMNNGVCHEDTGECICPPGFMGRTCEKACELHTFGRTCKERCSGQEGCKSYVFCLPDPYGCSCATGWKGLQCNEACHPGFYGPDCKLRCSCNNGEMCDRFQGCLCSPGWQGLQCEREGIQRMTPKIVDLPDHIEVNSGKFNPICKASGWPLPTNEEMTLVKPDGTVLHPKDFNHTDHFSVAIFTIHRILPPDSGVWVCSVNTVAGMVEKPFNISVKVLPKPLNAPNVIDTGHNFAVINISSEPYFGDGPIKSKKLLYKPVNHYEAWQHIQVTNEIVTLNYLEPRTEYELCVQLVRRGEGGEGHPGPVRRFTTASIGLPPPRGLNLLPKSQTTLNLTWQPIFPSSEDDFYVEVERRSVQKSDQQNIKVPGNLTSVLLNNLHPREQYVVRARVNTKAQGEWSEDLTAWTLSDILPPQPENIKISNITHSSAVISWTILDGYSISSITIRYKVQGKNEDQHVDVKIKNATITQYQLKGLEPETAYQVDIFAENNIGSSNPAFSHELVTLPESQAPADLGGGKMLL

[1] = biological target: the molecule itself; assay: non-reducing SDS polyacrylamide gel electrophoresis; purified recombinant angiopoietins run under non-reducing and reducing (1% 2-mercaptoethanol) conditions; oligomerization and multimerization states

Row | Molecule | binding result [1] | further results
1 | Angiopoietin-1 (from UniProt Q15389) |  | Kd (TIE2 (Homo sapiens)): 3.7 nM
2 | B1 |  | stoichiometry N [1]: 2
3 | B2 | binds | 
4 | B3 | binds | 
5 | B4 | binds | 
